Drawing on patent US20130022606A1, this text covers EC50 for three molecules.

The chains are these.
B1: XHA06.642 (antibody, V domains shown)
VH: EVQLVESGGDLVKPGGSLKLSCAVSGFTFSSYGMSWVRQTPDKRLEWVATVSSGGTYTYYPDSVKGRFTISRDNAKNTLYLQMSSLKSEDSAMYYCARHRGNYYATYYYAMDYWGQGTSVTVSS
VL: DIVLTQSPASLAVSLGQGATISCRASKSVSTSGYTYMHWYQQKPGQPPKLLIYLASNLESGVPARFSGSGSGTDFTLNIHPVEEEDAATYYCQHSGELPPSFGGGTKLEIKR
B2: 001-E06 (IgG1) (antibody, V domains shown)
VH: QVELLESGGGLVQPGGSLRLSCAASGFTFSSYWMSWVRQAPGKGLEWVSSVSDTGTDTHYADSVKGRFTISRDNSKNTLYLQMNSLRAEDTAVYYCAKTPLAYSSGWYYFDYWGQGTLVTVSS
VL: DIVLTQPPSASGTPGQRVTISCSGSSSNIGSNTVNWYQQLPGTAPKLLIYRNYQRPSGVPDRFSGSKSGTSASLAISGLRSEDEADYYCQSYDSSLSGSVFGGGTKLTVLG
B3: HE06.642 (antibody, V domains shown)
VH: EVQLVESGGGLVQPGGSLRLSCAVSGFTFSSYGMSWVRQAPGKGLEWVATVSSGGTYTYYPDSVKGRFTISRDNSKNTLYLQMNSLRAEDTAVYYCARHRGNYYATYYYAMDYWGQGTLVTVSS
VL: DIVLTQSPDSLAVSLGERATINCKASKSVSTSGYTYMHWYQQKPGQPPKLLIYLASNRESGVPDRFSGSGSGTDFTLTISPVQAEDVATYYCQHSGELPPSFGQGTKLEIKR

The target of the assay is rat prolactin receptor on Nb2 rat lymphoma cells (rat) (UniProt P05710). Put plainly: FACS on rat lymphoma cell line Nb2, IgG1.
B1 gave an EC50 of 1.1 nM.

In turn, B2 showed an EC50 of 1.2 nM.

Take B3: the EC50 was 0.9 nM.

For orientation: EC50 means the concentration that produces a half-maximal response. Low readings indicate a more potent agent, high ones a less potent agent.
